Measured values published in PMC4117942 (Genes & Development, 2014).

B1: D. melanogaster Rhino chromodomain (19–85) (domain or fragment)
chain: DHVEEYVVEKILGKRFVNGRPQVLVKWSGFPNENNTWEPLENVGNCMKLVSDFESEVFRLHRKAAAK

Legend:
[1] = target: Rhino chromodomain (23–85) (D. melanogaster) (UniProt Q7JXA8); assay: ITC
crystal structure = target: the molecule itself; assay: crystal structure
[2] = target: B1; assay: crystal structure

Kd [1] | Molecule | also measured
28.4 µM | H3(1–15)K9me2 peptide (from UniProt P02299 2-16) | 
21.8 µM | H3(1–15)K9me3 peptide (from UniProt P02299 2-16) | 
 | B1 | binding result (crystal structure): binds
 | ARTKQTARKSTGGKA (trimethyl-lysine at 9 (K9me3)) [H3(1–15)K9me3 peptide] | binding result [2]: binds
